Results as given in patent publication US20230159603A1 (published 2023).

B1: rhIL-12RB2-Fc (Fc fusion)
chain: KIDACKRGDVTVKPSHVILLGSTVNITCSLKPRQGCFHYSRRNKLILYKFDRRINFHHGHSLNSQVTGLPLGTTLFVCKLACINSDEIQICGAEIFVGVAPEQPQNLSCIQKGEQGTVACTWERGRDTHLYTEYTLQLSGPKNLTWQKQCKDIYCDYLDFGINLTPESPESNFTAKVTAVNSLGSSSSLPSTFTFLDIVRPLPPWDIRIKFQKASVSRCTLYWRDEGLVLLNRLRYRPSNSRLWNMVNVTKAKGRHDLLDLKPFTEYEFQISSKLHLYKGSWSDWSESLRAQTPEEEPTGMLDVWYMKRHIDYSRQQISLFWKNLSVSEARGKILHYQVTLQELTGGKAMTQNITGHTSWTTVIPRTGNWAVAVSAANSKGSSLPTRINIMNLCEAGLLAPRQVSANSEGMDNILVTWQPPRKDPSAVQEYVVEWRELHPGGDTQVPLNWLRSRPYNVSALISENIKSYICYEIRVYALSGDQGGCSSILGNSKHKAPLSGPHINAITEEKGSILISWNSIPVQEQMGCLLHYRIYWKERDSNSQPQLCEIPYRVSQNSHPINSLQPRVTYVLWMTALTAAGESSHGNEREFCLQGKAN

What was measured:
Test in all cases: SPR; KD estimated
AK384 = biological target: AK384
rhIL-12RB2-Fc = biological target: B1
rhIL-12RB1-Fc = rhIL-12RB1-Fc (human, UniProt P42701 24-545)

A Kd (AK384) of 1.7 nM was found for B1 in this work.

B2: recombinant human IL-12 (rhIL-12) control (ligand)
chain 1: IWELKKDVYVVELDWYPDAPGEMVVLTCDTPEEDGITWTLDQSSEVLGSGKTLTIQVKEFGDAGQYTCHKGGEVLSHSLLLLHKKEDGIWSTDILKDQKEPKNKTFLRCEAKNYSGRFTCWWLTTISTDLTFSVKSSRGSSDPQGVTCGAATLSAERVRGDNKEYEYSVECQEDSACPAAEESLPIEVMVDAVHKLKYENYTSSFFIRDIIKPDPPKNLQLKPLKNSRQVEVSWEYPDTWSTPHSYFSLTFCVQVQGKSKREKKDRVFTDKTSATVICRKNASISVRAQDRYYSSSWSEWASVPCS
chain 2: RNLPVATPDPGMFPCLHHSQNLLRAVSNMLQKARQTLEFYPCTSEEIDHEDITKDKTSTVEACLPLELTKNESCLNSRETSFITNGSCLASRKTSFMMALCLSSIYEDLKMYQVEFKTMNAKLLMDPKRQIFLDQNMLAVIDELMQALNFNSETVPQKSSLEEPDFYKTKIKLCILLHAFRIRAVTIDRVMSYLNAS
A Kd (rhIL-12RB2-Fc) of 0.617 nM and a Kd (rhIL-12RB1-Fc) of 60.1 nM were found for B2 in this work.
